Assay results published in PMC10968383 (Bioengineering, 2024).

Assays:
[1] = target: T1, full-length PrPc displayed on 293T cells (293T-PrPc) (Homo sapiens (Human)., UniProt P04156)
PrPc-35aa = PrPc-35aa (Homo sapiens (Human).); assay: BLI; conditions: both partners purified
[2] = target: T1, full-length PrPc displayed on 293T …; assay: Western blotting; conditions: one partner purified

Row | Binder | binding result [1] | Kd (PrPc-35aa) | other results
1 | HAb 6b (antibody, V domains shown) VH: EVQLVQSGAEVKKPGATVKMSCKASGYTFTDYYMKWVKQAPGKGLEWIGDINPNNGDTFYNEKFQGRATLTVDKSTNTAYMELSSLRSEDTAVYYCAKPGRTYWGQGTLVTVS VL: DIVLTQSPDSLAVSLGERVTMSCKSSQSLLDSGNQKNYLVWYQQKPGQPPKLLIYGASTRESGVPDRFSGSGSGTDFTLTISSVQAEDVAVYYCQNDHSYPLTFGAGTKLELK | binds | – | –
2 | HAb 6c (antibody, V domains shown) VH: EVQLVQSGAEVKKPGATVKISCKASGYTFTDYYMKWVQQAPGKGLEWMGLVNPNNGDTFYNEKFQGRVTITVDKSTNTAYMELSSLRSEDTAVYYCATPGRTYWGQGTLVTVS VL: DIVLTQSPDSLAVSLGERATISCKSSQSLLDSGNQKNYLVWYQQKPGQPPKLLIYGASTRESGVPDRFSGSGSGTDFTLTISSLQAEDVAVYYCQNDHSYPLTFGAGTKLELK | binds | – | –
3 | Clone 6 (antibody, V domains shown, also called murine anti-PrPc antibody Clone 6; full-length Clone 6 antibody; source: 293F cells, purified with protein A column) VH: EVQLQQSGPELVKPGASVKMSCKASGYTFTDYYMKWVKQSHGKSLEWIGDINPNNGDTFYNQKFKGKATLTVDKSSNTAYMQLNSLTSEDSAVYYCAKPGRTYWGQGTLVTVS VL: DIVLTQSPSSLSVSAGEKVTMSCKSSQSLLDSGNQKNYLVWYQQKPGQPPKLLIYGASTRESGVPDRFTGSGSGTDFTLTISSVQPEDLAVYYCQNDHSYPLTFGAGTKLELK | – | 0.314 nM | –
4 | HAb 6 (antibody, V domains shown, IgG1; also called humanized antibody HAb 6; wild-type antibody; source: 293F cells, purified with protein A column) VH: EVQLVQSGAEVKKPGATVKMSCKASGYTFTDYYMKWVKQAPGKSLEWIGDINPNNGDTFYNQKFQGRATLTVDKSSNTAYMELSSLRSEDTAVYYCAKPGRTYWGQGTLVTVS VL: DIVLTQSPDSLAVSLGERVTMSCKSSQSLLDSGNQKNYLVWYQQKPGQPPKLLIYGASTRESGVPDRFTGSGSGTDFTLTISSVQAEDVAVYYCQNDHSYPLTFGAGTKLELK | – | 2.92 nM | –
5 | 4AA-m (antibody, V domains shown, also called recombinant 4AA-m; source: 293F cells, purified with protein A column (said of the antibodies in general)) VH: EVQLVQSGAEVKKPGDTVKMSCKASGYTFTDYYMKWVKQAPGKAPGKSLEWIGDINPNNGDTFYNQKFQGRATLTVDKSSNTAYMELSSLRSEDTAVYYCVKPGRTYWGQGTLVTVS VL: DIVLTQSPDSLAVSLGERVTMSCKSSQSLLDSGNQKNYLVWYQQKPGQPPKLLIYGASTRESGVPDRFTGSGSGTDFTLTISSVQAEDVAVYYCQNDHSYPLTFGAGTKLELK | – | – | Western blot signal on the 5 μg lysate, fold of that with 3F4 [2]: 3 fold; Western blot signal on the 5 μg lysate, fold of that with 8H4 [2]: 9 fold
6 | 4AA (antibody, V domains shown, IgG1) VH: EVQLVQSGAEVKKPGDTVKMSCKASGYTFTDYYMKWVKQAPGKAPGKSLEWIGDINPNNGDTFYNQKFQGRATLTVDKSSNTAYMELSSLRSEDTAVYYCVKPGRTYWGQGTLVTVS VL: DIVLTQSPDSLAVSLGERVTMSCKSSQSLLDSGNQKNYLVWYQQKPGQPPKLLIYGASTRESGVPDRFTGSGSGTDFTLTISSVQAEDVAVYYCQNDHSYPLTFGAGTKLELK | – | 0.281 nM | –
